Starred links: 1 amine or outer side, 2 acyl side, 3 side chain; linkers in the order of their positions; H or OH if unused. Positions of bridges follow the written chain, without caps; N, C: chain ends. Non-standard residues stand in square brackets, D forms with d. Primed or numbered codes have the meaning given here. PyrS2″ = (S)-3-amino-1-((pent-4-en-1-yloxy)carbonyl)pyrrolidine-3-carboxylic acid (stapling residue), C=CCCCOC(=O)N1CC[C@@](N[*:1])(C(=O)[*:2])C1; B5(16) = 2-amino-2-(pent-4-en-1-yl)hept-6-enoic acid = 2,2-bis(4-pentenyl)glycine (stitching residue), C=CCCCC(CCCC=C)(N[*:1])C(=O)[*:2]; B5(24) = 2-amino-2-(pent-4-en-1-yl)hept-6-enoic acid, 2,2-bis(4-pentenyl)glycine (stitching residue), C=CCCCC(CCCC=C)(N[*:1])C(=O)[*:2]; B5(4) = 2,2-bis(4-pentenyl)glycine = 2-amino-2-(pent-4-en-1-yl)hept-6-enoic acid (stitching residue), C=CCCCC(CCCC=C)(N[*:1])C(=O)[*:2]; B5(20) = 2-amino-2-(pent-4-en-1-yl)hept-6-enoic acid = bis(4-pentenyl)glycine, stitching residue, C=CCCCC(CCCC=C)(N[*:1])C(=O)[*:2]; PyrS2 = (S)-3-amino-1-((pent-4-en-1-yloxy)carbonyl)pyrrolidine-3-carboxylic acid, C=CCCCOC(=O)N1CC[C@@](N[*:1])(C(=O)[*:2])C1; B5 = 2-amino-2-(pent-4-en-1-yl)hept-6-enoic acid, C=CCCCC(CCCC=C)(N[*:1])C(=O)[*:2]; Phe(2-CONH2) = NC(=O)c1ccccc1C[C@H](N)C(=O)O; Phe(2-Cl) = N[C@@H](Cc1ccccc1Cl)C(=O)O; Bta = N[C@@H](Cc1csc2ccccc12)C(=O)O; αAllylPro = C=CC[C@@]1(C(=O)O)CCCN1; S8 = C=CCCCCCC[C@](C)(N)C(=O)O; hSer = N[C@@H](CCO)C(=O)O

The text below walks through data of patent publication US20240116985A1 (published 2024).

T1: full-length beta-Catenin (Uniprot ID P35222) (Homo sapiens (Human), UniProt P35222 1-781)
T1 construct: also called bCat; B-Catenin
T1 sequence: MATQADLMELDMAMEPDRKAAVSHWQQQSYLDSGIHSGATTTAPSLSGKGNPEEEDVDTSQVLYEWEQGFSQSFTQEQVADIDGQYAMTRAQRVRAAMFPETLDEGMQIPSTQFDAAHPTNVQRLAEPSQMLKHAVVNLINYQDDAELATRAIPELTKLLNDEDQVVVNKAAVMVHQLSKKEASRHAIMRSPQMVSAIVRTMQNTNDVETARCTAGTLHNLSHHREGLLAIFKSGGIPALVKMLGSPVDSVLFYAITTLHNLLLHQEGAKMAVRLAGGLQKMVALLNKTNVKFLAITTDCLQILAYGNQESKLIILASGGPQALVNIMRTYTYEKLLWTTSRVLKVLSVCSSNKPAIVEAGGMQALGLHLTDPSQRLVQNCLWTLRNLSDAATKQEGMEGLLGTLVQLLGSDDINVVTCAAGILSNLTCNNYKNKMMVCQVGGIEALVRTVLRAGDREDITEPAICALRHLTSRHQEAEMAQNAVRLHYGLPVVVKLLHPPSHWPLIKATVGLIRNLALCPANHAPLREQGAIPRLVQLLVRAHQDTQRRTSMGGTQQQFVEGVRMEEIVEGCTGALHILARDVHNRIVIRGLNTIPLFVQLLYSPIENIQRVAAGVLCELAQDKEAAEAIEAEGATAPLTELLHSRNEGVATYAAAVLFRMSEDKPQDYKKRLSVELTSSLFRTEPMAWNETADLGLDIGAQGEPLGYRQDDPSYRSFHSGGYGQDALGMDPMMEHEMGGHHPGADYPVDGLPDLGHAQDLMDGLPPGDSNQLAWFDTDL

T2: Bcat-Halo (UniProt P35222 1-781, HaloTag NanoBRET 618 Ligand bound in the assay)
T2 construct: Expressed by transfection in HEK293 cells; also called beta-catenin HaloTag NanoBRET construct; not shown: HaloTag
T2 sequence (looked up): T1 sequence

T3: full-length beta-Catenin (Uniprot ID P35222) (Homo sapiens (Human), UniProt P35222 2-781)
T3 construct: also called bCat; B-Catenin
T3 sequence: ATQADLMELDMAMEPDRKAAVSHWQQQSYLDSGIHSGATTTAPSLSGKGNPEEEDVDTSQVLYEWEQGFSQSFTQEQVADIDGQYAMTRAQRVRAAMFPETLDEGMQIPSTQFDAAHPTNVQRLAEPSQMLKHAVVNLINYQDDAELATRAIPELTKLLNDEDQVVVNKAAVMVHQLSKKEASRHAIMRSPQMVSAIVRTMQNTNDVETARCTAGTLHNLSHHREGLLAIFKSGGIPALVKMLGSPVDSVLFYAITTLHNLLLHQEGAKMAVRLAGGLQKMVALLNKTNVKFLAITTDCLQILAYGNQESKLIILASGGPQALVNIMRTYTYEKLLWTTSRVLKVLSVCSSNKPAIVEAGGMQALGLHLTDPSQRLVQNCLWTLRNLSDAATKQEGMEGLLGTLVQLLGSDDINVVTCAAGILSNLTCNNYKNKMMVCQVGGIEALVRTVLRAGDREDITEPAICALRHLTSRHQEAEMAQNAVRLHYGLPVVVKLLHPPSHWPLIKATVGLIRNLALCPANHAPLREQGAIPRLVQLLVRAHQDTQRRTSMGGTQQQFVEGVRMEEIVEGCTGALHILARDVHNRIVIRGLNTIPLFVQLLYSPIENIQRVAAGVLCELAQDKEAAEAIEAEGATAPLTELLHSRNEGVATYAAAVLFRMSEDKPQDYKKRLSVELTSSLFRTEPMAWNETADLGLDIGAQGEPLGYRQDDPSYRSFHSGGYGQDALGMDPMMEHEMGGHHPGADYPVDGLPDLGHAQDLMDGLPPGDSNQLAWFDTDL

B1: I-507 (peptide)
peptide: XDAXDEAAFQXFXT
modifications: not fully specified; Ac-PL3-Asp-Ala-B5-Asp-Glu-Ala-Ala-Phe-Gln-S8-Phe-BztA-Thr-NH2; stapled by olefin metathesis (PL3-B5 and B5-S8)
B2: I-527 (peptide)
peptide: XDIXDEAAFQXFXQ
modifications: not fully specified; Ac-PL3-Asp-Ile-B5-Asp-Glu-Ala-Ala-Phe-Gln-S8-2OMeF-BztA-Gln-NH2; stapled by olefin metathesis (PL3-B5 and B5-S8)
B3: I-528 (peptide)
peptide: XDIXDEAAFQXFXQ
modifications: not fully specified; Ac-PL3-Asp-Ile-B5-Asp-Glu-Ala-Ala-Phe-Gln-S8-2OMeF-BztA-Gln-NH2; stapled by olefin metathesis (PL3-B5 and B5-S8)
B4: I-1142 (peptide)
peptide: Ac-[αAllylPro]DF[B5]DDAAFS[PyrS2][Phe(2-Cl)][Bta][dT]-NH2
modifications: staple 1-4, 4-11
notes: Stapled (stitched) peptide composition; olefin isomer not specified
B5: I-1157 (peptide)
peptide: Ac-[αAllylPro]DF[B5(4)]DDALFT[PyrS2″][Phe(2-Cl)][Bta]S-NH2
modifications: staple 1-4, 4-11
notes: as for B4
B6: I-1153 (peptide)
peptide: Ac-[αAllylPro]DF[B5(16)]DDLAFS[PyrS2″][Phe(2-Cl)][Bta]Q-NH2
modifications: staple 1-4, 4-11
notes: as for B4
B7: I-1141 (peptide)
peptide: Ac-[αAllylPro]DF[B5(24)]DDAAFS[PyrS2″][Phe(2-Cl)][Bta]T-NH2
modifications: staple 1-4, 4-11
notes: as for B4
B8: I-1146 (peptide)
peptide: Ac-[αAllylPro]DF[B5(16)]DDAAFL[PyrS2″][Phe(2-Cl)][Bta][dT]-NH2
modifications: staple 1-4, 4-11
notes: as for B4
B9: I-1145 (peptide)
peptide: Ac-[αAllylPro]DF[B5]DDAAFL[PyrS2][Phe(2-Cl)][Bta]T-NH2
modifications: staple 1-4, 4-11
notes: as for B4
B10: I-1144 (peptide)
peptide: Ac-[αAllylPro]DF[B5(24)]DDAAFS[PyrS2″][Phe(2-Cl)][Bta]L-NH2
modifications: staple 1-4, 4-11
notes: as for B4
B11: I-1143 (peptide)
peptide: Ac-[αAllylPro]DF[B5]DDAAFS[PyrS2][Phe(2-Cl)][Bta][hSer]-NH2
modifications: staple 1-4, 4-11
notes: as for B4
B12: I-1156 (peptide)
peptide: Ac-[αAllylPro]DF[B5(4)]DDLAFT[PyrS2″][Phe(2-Cl)][Bta]S-NH2
modifications: staple 1-4, 4-11
notes: as for B4
B13: I-1155 (peptide)
peptide: Ac-[αAllylPro]DF[B5(16)]DDLLFS[PyrS2″][Phe(2-Cl)][Bta]Q-NH2
modifications: staple 1-4, 4-11
notes: as for B4
B14: I-1154 (peptide)
peptide: Ac-[αAllylPro]DF[B5(16)]DDALFS[PyrS2″][Phe(2-Cl)][Bta]Q-NH2
modifications: staple 1-4, 4-11
notes: as for B4

The first test deals with T1, full-length beta-Catenin (Uniprot ID …). As to the kind of experiment: FP competition: full-length beta-catenin 10 nM + 5FAM-TCF4(10-53) 10 nM. On the procedure: The plate was incubated protected from light for 60 minutes at 20° C. prior to read. Reads were performed on a CLARIOstar plate reader (BMG Labtech) in duplicate, and data were fitted to a 1:1 binding model with hill slope using an in-house script. All provided concentrations are final concentrations.
For the molecule B1, the IC50 was 192 nM.
The same measure, in the same setting: in the case of Ac-[αAllylPro]DA[B5(20)]DEAAFQ[S8]F[Bta]T-NH2 (staple 1-4, 4-11; also: later-eluting HPLC peak of staple isomers) [I-508] it was 73 nM.
The same measure, in the same setting: in the case of B2 it was 98 nM; in that of B3, 63 nM.
The same measure, in the same setting: in the case of Ac-[αAllylPro]DA[B5(20)]DEAAFN[S8][Phe(2-CONH2)][Bta]H-NH2 (staple 1-4, 4-11, Stapled peptide composition) [I-513] it was 143 nM.

Another test concerns the target T2, Bcat-Halo. As to the kind of experiment: NanoBRET Abs IC50 in HEK293 cells; competitor TCF4-Luc on Bcat-Halo.
In turn, B4 showed an IC50 of over 20000 nM.
The same measure, in the same setting: in the case of B5 it was over 20000 nM.
B6 displayed an IC50 of over 20000 nM.
As for B7, the IC50 was 27300 nM.
B8 displayed an IC50 of over 20000 nM.
Same read-out and setting: in the case of B9 it was 30600 nM.
Regarding B10, the IC50 is 32800 nM.
With B11, the concentration for half-maximal inhibition (IC50) came to 33100 nM.
B12 returned an IC50 of 26100 nM.

The target in another test is T3, full-length beta-Catenin (Uniprot ID …). Put plainly: fluorescence polarization competition vs 5FAM-TCF4(10-53) on full-length beta-catenin. In short, it runs like this:
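Data fitted to 1:1 binding model with hill slope from duplicate reads taken after 60 minutes at 20° C. in the dark.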
In turn, B4 had an IC50 of 22 nM.
The molecule B5 showed an IC50 of 36 nM.
The same measure, in the same setting: in the case of B13 it was 60 nM.
Turning to B14, the IC50 came to 45 nM.
In the case of B6, the IC50 came out at 12 nM.
Same read-out and setting: in the case of B8 it was 33 nM.
On the same count and under the same terms, as for B9, the figure is 18 nM; as for B11, 12 nM.
Same read-out and setting: as for B12, the figure is 14 nM.
